Data reported in patent EP4471049A1 (Zealand Pharma A/S, priority 2023, dated 2024).
Where two headings read alike, the source gives them in different places. *1 amine or outer side, *2 acyl side, *3 side chain or, on linkers, in order; H or OH if unused. Bridges are numbered along the chain shown (N, C = ends). Where no end group is shown, it is not given here. [ ]: non-standard residue; d: D form. 4‑Aminomethyl‑phenylacetyl = 4-aminomethyl-phenylacetyl unit, its amine closes the lactam, O=C(Cc1ccc(CN[*:1])cc1)[*:2]; αMeAla(3-pyridyl) = C[C@](N)(Cc1cccnc1)C(=O)O; 2Nal = N[C@@H](Cc1ccc2ccccc2c1)C(=O)O; AEF = NCCOc1ccc(C[C@H](N)C(=O)O)cc1; NMe3Pal = CN[C@@H](Cc1cccnc1)C(=O)O; 3Pal = N[C@@H](Cc1cccnc1)C(=O)O; d3Pal = N[C@H](Cc1cccnc1)C(=O)O; αMeL = CC(C)C[C@](C)(N)C(=O)O; β3hL = CC(C)C[C@H](N)CC(=O)O; Dab = NCC[C@H](N)C(=O)O; Sar = CNCC(=O)O

Experiments:
[1] = target: T1, human IL-23R endogenously expressed on DB cells (human, UniProt Q5VWK5 24-629); test: cell-based or functional assay
T1 sequence (looked up): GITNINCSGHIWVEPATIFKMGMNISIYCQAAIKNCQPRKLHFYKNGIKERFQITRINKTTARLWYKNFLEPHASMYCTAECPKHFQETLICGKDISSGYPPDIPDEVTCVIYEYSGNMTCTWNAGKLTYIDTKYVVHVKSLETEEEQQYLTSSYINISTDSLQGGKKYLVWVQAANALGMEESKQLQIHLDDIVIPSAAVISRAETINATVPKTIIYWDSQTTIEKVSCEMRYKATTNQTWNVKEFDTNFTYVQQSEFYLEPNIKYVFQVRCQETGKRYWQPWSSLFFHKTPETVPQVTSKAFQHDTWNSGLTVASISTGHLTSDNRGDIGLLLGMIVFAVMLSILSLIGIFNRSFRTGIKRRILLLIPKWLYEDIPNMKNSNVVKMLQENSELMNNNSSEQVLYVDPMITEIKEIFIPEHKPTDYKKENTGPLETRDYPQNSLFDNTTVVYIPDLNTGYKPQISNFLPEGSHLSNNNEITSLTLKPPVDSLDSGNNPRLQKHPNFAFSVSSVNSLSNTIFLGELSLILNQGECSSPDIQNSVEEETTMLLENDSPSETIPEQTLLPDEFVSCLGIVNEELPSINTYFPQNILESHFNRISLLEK

[2] = target: T2, Nluc-IL23R fusion protein (human, UniProt Q5VWK5 22-629); test: Ki from BRET competition (Cheng-Prusoff), Nluc-IL23R membranes
T2 construct: range 22-629; expressed with a secretion signal in HEK293 cells; used as crude membrane preparation; also called hIL-23R; human IL-23R; not shown: Nanoluc protein from the expression plasmid N1371 (Promega), N-terminal of IL-23R
T2 sequence (looked up): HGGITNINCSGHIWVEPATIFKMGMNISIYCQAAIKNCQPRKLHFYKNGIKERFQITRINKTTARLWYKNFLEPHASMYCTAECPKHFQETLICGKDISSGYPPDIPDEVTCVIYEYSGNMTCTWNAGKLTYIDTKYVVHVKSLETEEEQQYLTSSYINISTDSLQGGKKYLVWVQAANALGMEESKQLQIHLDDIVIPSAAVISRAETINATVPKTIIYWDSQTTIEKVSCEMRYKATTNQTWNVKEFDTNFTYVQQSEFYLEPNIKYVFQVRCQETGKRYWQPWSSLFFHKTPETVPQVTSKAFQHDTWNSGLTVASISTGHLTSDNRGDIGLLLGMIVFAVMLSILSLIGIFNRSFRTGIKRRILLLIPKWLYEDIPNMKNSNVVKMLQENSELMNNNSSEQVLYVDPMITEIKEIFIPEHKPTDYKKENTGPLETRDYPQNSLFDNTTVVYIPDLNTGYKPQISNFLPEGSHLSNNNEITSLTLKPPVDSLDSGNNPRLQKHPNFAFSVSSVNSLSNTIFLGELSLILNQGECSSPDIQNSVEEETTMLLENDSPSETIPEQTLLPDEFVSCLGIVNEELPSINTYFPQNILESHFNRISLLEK

[3] = target: T2, Nluc-IL23R fusion protein; test: BRET competition vs TAMRA-labelled peptide, Nluc-IL23R membranes; for % displacement (hIL-23R binding): test concentration or dose not given here
[4] = target: T2, Nluc-IL23R fusion protein; test: as above; remark: listed apart in the source
[5] = target: T1, human IL-23R endogenously expressed on …; test: cell-based or functional assay; remark: listed apart in the source
[6] = target: T2, Nluc-IL23R fusion protein; test: BRET competition vs TAMRA-labelled peptide, Nluc-IL23R membranes; remark: listed apart in the source; for % displacement (hIL-23R binding): test concentration or dose not given here
[7] = target: T1, human IL-23R endogenously expressed on …; test: cell-based or functional assay; remark: listed apart in the source
[8] = target: T2, Nluc-IL23R fusion protein; test: BRET competition vs TAMRA-labelled peptide, Nluc-IL23R membranes; remark: listed apart in the source; for % displacement (hIL-23R binding): test concentration or dose not given here
[9] = target: T1, human IL-23R endogenously expressed on …; test: cell-based or functional assay; remark: listed apart in the source

B1: Ref 81 (peptide)
peptide: [4‑Aminomethyl‑phenylacetyl]SCWQC[AEF][2Nal][αMeL]ES-NH2
modifications: lactam (positions not given here); bridge 3-6; not fully specified (bridges); printed as [4-Aminomethyl-phenylacetyl](1c)*SC(2a)WQC(2a)[Y(2-aminoethoxy)][2-Nal][2-Me-Leu]E(1c)S-[NH2]
notes: Y = Y(2-aminoethoxy)
hIL-23 (pSTAT3) antagonist % inhibition [1]: 95% | hIL-23 (pSTAT3) antagonist IC50 [1]: 21 nM | Ki [2]: 0.318 nM | IC50 [3]: 0.39 nM | IC50 [4]: 0.39 nM

B2: Ref 80 (peptide)
peptide: [4‑Aminomethyl‑phenylacetyl]SCWQC[AEF][2Nal][αMeL]E[dR]-NH2
modifications: lactam N-10; bridge 3-6; not fully specified (bridges); printed as [4-Aminomethyl-phenylacetyl](1c)*SC(2a)WQC(2a)[Y(2-aminoethoxy)][2-Nal][2-Me-Leu]E(1c)[{d}R]-[NH2]
notes: Y = Y(2-aminoethoxy), R = D-Arg
hIL-23 (pSTAT3) antagonist % inhibition [1]: 97% | hIL-23 (pSTAT3) antagonist IC50 [1]: 11 nM | Ki [2]: 0.15 nM | IC50 [3]: 0.18 nM | % displacement (hIL-23R binding) [4]: 98% | IC50 [4]: 0.18 nM

B3: Compound 5 (peptide)
peptide: [4‑Aminomethyl‑phenylacetyl]SEWQ[Dab][AEF][2Nal][αMeL]E[Dab][d3Pal]-NH2
modifications: lactam N-10, 3-6
IC50 (pSTAT3) [5]: 2.1 nM | hIL-23 (pSTAT3) antagonist % inhibition [1]: 95% | hIL-23 (pSTAT3) antagonist IC50 [1]: 2.1 nM | % displacement (hIL-23R binding) [6]: 99%

B4: Compound 11 (peptide)
peptide: [4‑Aminomethyl‑phenylacetyl]SEWQ[Dab][AEF][2Nal][αMeL]E[Dab][3Pal][β3hL]-NH2
modifications: lactam N-10, 3-6
SMILES: CC(C)C[C@@H](CC(N)=O)NC(=O)[C@H](Cc1cccnc1)NC(=O)[C@H](CCN)NC(=O)[C@@H]1CCC(=O)NCc2ccc(cc2)CC(=O)N[C@@H](CO)C(=O)N[C@H]2CCC(=O)NCC[C@H](NC(=O)[C@H](CCC(N)=O)NC(=O)[C@H](Cc3c[nH]c4ccccc34)NC2=O)C(=O)N[C@@H](Cc2ccc(OCCN)cc2)C(=O)N[C@@H](Cc2ccc3ccccc3c2)C(=O)N[C@@](C)(CC(C)C)C(=O)N1
IC50 (pSTAT3) [7]: 0.68 nM | hIL-23 (pSTAT3) antagonist % inhibition [1]: 98% | hIL-23 (pSTAT3) antagonist IC50 [1]: 0.68 nM | % displacement (hIL-23R binding) [8]: 103% | IC50 [8]: 0.024 nM

B5: Compound 4 (peptide)
peptide: [4‑Aminomethyl‑phenylacetyl]SEWQ[Dab][AEF][2Nal][αMeL]E[Dab][NMe3Pal]-NH2
modifications: lactam N-10, 3-6
IC50 (pSTAT3) [9]: 6.5 nM | hIL-23 (pSTAT3) antagonist % inhibition [1]: 100% | hIL-23 (pSTAT3) antagonist IC50 [1]: 6.5 nM | % displacement (hIL-23R binding) [6]: 111% | IC50 [6]: 0.17 nM

B6: Compound 10 (peptide)
peptide: [4‑Aminomethyl‑phenylacetyl]SEWQ[Dab][AEF][2Nal][αMeL]E[Dab][3Pal][dH]-NH2
modifications: lactam N-10, 3-6
SMILES: CC(C)C[C@]1(C)NC(=O)[C@H](Cc2ccc3ccccc3c2)NC(=O)[C@H](Cc2ccc(OCCN)cc2)NC(=O)[C@@H]2CCNC(=O)CC[C@H](NC(=O)[C@H](CO)NC(=O)Cc3ccc(cc3)CNC(=O)CC[C@@H](C(=O)N[C@@H](CCN)C(=O)N[C@@H](Cc3cccnc3)C(=O)N[C@H](Cc3c[nH]cn3)C(N)=O)NC1=O)C(=O)N[C@@H](Cc1c[nH]c3ccccc13)C(=O)N[C@@H](CCC(N)=O)C(=O)N2
IC50 (pSTAT3) [7]: 0.038 nM | hIL-23 (pSTAT3) antagonist % inhibition [1]: 99% | hIL-23 (pSTAT3) antagonist IC50 [1]: 0.038 nM | % displacement (hIL-23R binding) [8]: 91%

B7: Compound 8 (peptide)
peptide: [4‑Aminomethyl‑phenylacetyl]SEWQ[Dab][AEF][2Nal][αMeL]E[Dab][3Pal]-NHMe
modifications: lactam N-10, 3-6
IC50 (pSTAT3) [9]: 0.053 nM | hIL-23 (pSTAT3) antagonist % inhibition [1]: 101% | hIL-23 (pSTAT3) antagonist IC50 [1]: 0.053 nM | % displacement (hIL-23R binding) [6]: 103%

B8: Compound C (peptide)
peptide: XQTWQCYWXENG
modifications: [Ac]-[Abu](16i)QTWQC(16i)[Y(2-aminoethoxy)]W[2-Me-Lys]ENG-[NH2]; (16i) [2,7] thioether bridge (cystathionine); N-terminal acetyl, C-terminal amide
notes: Y = Y(2-aminoethoxy)
hIL-23 (pSTAT3) antagonist % inhibition [1]: 99% | hIL-23 (pSTAT3) antagonist IC50 [1]: 13 nM | Ki [2]: 2.11 nM | IC50 [3]: 2.6 nM | % displacement (hIL-23R binding) [4]: 102% | IC50 [4]: 2.6 nM

B9: Compound 9 (peptide)
peptide: [4‑Aminomethyl‑phenylacetyl]SEWQ[Dab][AEF][2Nal][αMeL]E[Dab][3Pal][Sar]-NH2
modifications: lactam N-10, 3-6
SMILES: CC(C)C[C@]1(C)NC(=O)[C@H](Cc2ccc3ccccc3c2)NC(=O)[C@H](Cc2ccc(OCCN)cc2)NC(=O)[C@@H]2CCNC(=O)CC[C@H](NC(=O)[C@H](CO)NC(=O)Cc3ccc(cc3)CNC(=O)CC[C@@H](C(=O)N[C@@H](CCN)C(=O)N[C@@H](Cc3cccnc3)C(=O)N(C)CC(N)=O)NC1=O)C(=O)N[C@@H](Cc1c[nH]c3ccccc13)C(=O)N[C@@H](CCC(N)=O)C(=O)N2
IC50 (pSTAT3) [7]: 0.025 nM | hIL-23 (pSTAT3) antagonist % inhibition [1]: 97% | hIL-23 (pSTAT3) antagonist IC50 [1]: 0.025 nM | % displacement (hIL-23R binding) [8]: 100%

B10: Compound 3 (peptide)
peptide: [4‑Aminomethyl‑phenylacetyl]SEWQ[Dab][AEF][2Nal][αMeL]E[Dab][αMeAla(3-pyridyl)]-NH2
modifications: lactam N-10, 3-6
SMILES: CC(C)C[C@]1(C)NC(=O)[C@H](Cc2ccc3ccccc3c2)NC(=O)[C@H](Cc2ccc(OCCN)cc2)NC(=O)[C@@H]2CCNC(=O)CC[C@H](NC(=O)[C@H](CO)NC(=O)Cc3ccc(cc3)CNC(=O)CC[C@@H](C(=O)N[C@@H](CCN)C(=O)N[C@@](C)(Cc3cccnc3)C(N)=O)NC1=O)C(=O)N[C@@H](Cc1c[nH]c3ccccc13)C(=O)N[C@@H](CCC(N)=O)C(=O)N2
IC50 (pSTAT3) [9]: 1.7 nM | hIL-23 (pSTAT3) antagonist % inhibition [1]: 98% | hIL-23 (pSTAT3) antagonist IC50 [1]: 1.7 nM | % displacement (hIL-23R binding) [6]: 99%

B11: I1 (isomer 3) (peptide)
peptide: H-GCTCWECWWLCS-NH2
modifications: bridge 4-7, 2-11; not fully specified (bridges)
notes: compound from Heinis et al., 2020, synthesised for comparison
hIL-23 (pSTAT3) antagonist % inhibition [1]: 83% | Ki [2]: 104 nM | IC50 [3]: 130 nM | % displacement (hIL-23R binding) [4]: 105% | IC50 [4]: 130 nM

B12: Ref 52 (peptide)
peptide: [4‑Aminomethyl‑phenylacetyl]SCWQC[AEF][2Nal][αMeL]ER-NH2
modifications: lactam N-10; bridge 3-6; not fully specified (bridges); printed as [4-Aminomethyl-phenylacetyl](1c)*SC(2a)WQC(2a)[Y(2-aminoethoxy)][2-Nal][2-Me-Leu]E(1c)R-[NH2]
notes: Y = Y(2-aminoethoxy)
hIL-23 (pSTAT3) antagonist % inhibition [1]: 103% | hIL-23 (pSTAT3) antagonist IC50 [1]: 7.8 nM | Ki [2]: 0.0475 nM | IC50 [3]: 0.058 nM | % displacement (hIL-23R binding) [4]: 100% | IC50 [4]: 0.058 nM
